Test results from patent US20240132485A1, “HETEROCYCLIC CULLIN RING UBIQUITIN LIGASE COMPOUNDS AND USES THEREOF” (CEMM - FORSCHUNGSZENTRUM FÜR MOLEKULARE MEDIZIN GMBH, priority 2020, published 2024).

Key:
[1] = target: Nanoluc_DDB1 (N-terminal Nanoluc luciferase, G4S linker, DDB1 (FL)) (UniProt Q16531); experiment: NanoBRET in HEK293T cells, 10 µM compound Example 3-2; class B = 3-4 fold increase
[2] = target: Nanoluc_DDB1 (N-terminal Nanoluc luciferase, G4S linker, DDB1 (FL)) (UniProt Q16531); experiment: NanoBRET in HEK293T cells, 10 µM compound Example 3-5; class B = 3-4 fold increase
[3] = target: Nanoluc_DDB1 (N-terminal Nanoluc luciferase, G4S linker, DDB1 (FL)) (UniProt Q16531); experiment: NanoBRET in HEK293T cells, 10 µM compound Example 3-16; class C = 2-3 fold increase
[4] = target: Nanoluc_DDB1 (N-terminal Nanoluc luciferase, G4S linker, DDB1 (FL)) (UniProt Q16531); experiment: NanoBRET in HEK293T cells, 10 µM compound Example 3-53; class B = 3-4 fold increase
[5] = target: Nanoluc_DDB1 (N-terminal Nanoluc luciferase, G4S linker, DDB1 (FL)) (UniProt Q16531); experiment: NanoBRET in HEK293T cells, 10-point titration of compound Example 3-64; class E = >10 µM
[6] = target: Nanoluc_DDB1 (N-terminal Nanoluc luciferase, G4S linker, DDB1 (FL)) (UniProt Q16531); experiment: NanoBRET in HEK293T cells, 10 µM compound Example 3-52; class A = greater than 4-fold increase

Nanoluc_DDB1 (N-terminal Nanoluc luciferase, G4S linker, DDB1 (FL)), sequence (Q16531 other isoform, or with tags, fused parts or gaps): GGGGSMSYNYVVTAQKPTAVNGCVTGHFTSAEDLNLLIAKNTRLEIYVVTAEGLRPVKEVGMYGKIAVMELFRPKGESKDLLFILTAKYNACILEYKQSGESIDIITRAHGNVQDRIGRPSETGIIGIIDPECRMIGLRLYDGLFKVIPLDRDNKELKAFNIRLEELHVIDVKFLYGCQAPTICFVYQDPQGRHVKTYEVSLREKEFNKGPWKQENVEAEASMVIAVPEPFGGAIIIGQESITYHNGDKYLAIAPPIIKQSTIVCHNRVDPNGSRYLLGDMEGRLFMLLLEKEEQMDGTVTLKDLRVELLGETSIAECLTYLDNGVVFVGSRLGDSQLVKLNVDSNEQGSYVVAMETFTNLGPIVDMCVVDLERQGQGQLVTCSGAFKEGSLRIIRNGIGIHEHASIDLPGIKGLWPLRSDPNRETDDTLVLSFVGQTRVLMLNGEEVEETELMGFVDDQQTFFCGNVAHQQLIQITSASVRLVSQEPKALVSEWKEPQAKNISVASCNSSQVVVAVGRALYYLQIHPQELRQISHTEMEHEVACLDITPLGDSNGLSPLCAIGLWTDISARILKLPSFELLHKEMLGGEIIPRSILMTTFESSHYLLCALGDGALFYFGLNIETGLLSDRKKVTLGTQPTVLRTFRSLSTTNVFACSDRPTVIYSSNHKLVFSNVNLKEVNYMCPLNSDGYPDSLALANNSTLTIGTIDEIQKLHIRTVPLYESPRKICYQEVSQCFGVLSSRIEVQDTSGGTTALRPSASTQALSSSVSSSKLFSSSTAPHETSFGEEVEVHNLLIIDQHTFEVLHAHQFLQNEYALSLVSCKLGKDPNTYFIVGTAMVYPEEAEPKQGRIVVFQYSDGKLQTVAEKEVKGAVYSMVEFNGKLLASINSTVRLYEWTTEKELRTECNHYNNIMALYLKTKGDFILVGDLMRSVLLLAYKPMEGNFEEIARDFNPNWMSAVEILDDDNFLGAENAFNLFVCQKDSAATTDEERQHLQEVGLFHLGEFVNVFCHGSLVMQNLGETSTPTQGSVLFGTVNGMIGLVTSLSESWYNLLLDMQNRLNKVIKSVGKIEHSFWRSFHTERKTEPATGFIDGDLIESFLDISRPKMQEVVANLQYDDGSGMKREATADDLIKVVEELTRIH

Substance: HaloTag_CDK12 (N-terminal HaloTag, G4S linker, CDK12 (713-1052)) (from UniProt Q9NYV4 713-1052) (enzyme)
- NanoBRET fold increase [1]: 3 to 4 fold
- NanoBRET fold increase [2]: 3 to 4 fold
- NanoBRET fold increase [3]: 2 to 3 fold
- NanoBRET fold increase [4]: 3 to 4 fold
- EC50 [5]: > 10 µM
- NanoBRET fold increase [6]: > 4 fold
